Experiments:
MERTK = MERTK (UniProt Q12866); experiment: phosphorylation enrichment, bacterial display (enrichment ratio); higher = better substrate or ligand; peptides without Tyr show the background
Fyn = Fyn (UniProt P06241); experiment: as above
c-Abl (mouse) = experiment: as above
EPHB2 = EPHB2 (UniProt P29323); experiment: as above
Fes = Fes (UniProt P07332); experiment: as above
c-Src = experiment: as above
Hck = Hck (UniProt P08631); experiment: as above
EPHB1 = EPHB1 (UniProt P54762); experiment: as above
EPHB1, sequence (P54762 whole entry, looked up): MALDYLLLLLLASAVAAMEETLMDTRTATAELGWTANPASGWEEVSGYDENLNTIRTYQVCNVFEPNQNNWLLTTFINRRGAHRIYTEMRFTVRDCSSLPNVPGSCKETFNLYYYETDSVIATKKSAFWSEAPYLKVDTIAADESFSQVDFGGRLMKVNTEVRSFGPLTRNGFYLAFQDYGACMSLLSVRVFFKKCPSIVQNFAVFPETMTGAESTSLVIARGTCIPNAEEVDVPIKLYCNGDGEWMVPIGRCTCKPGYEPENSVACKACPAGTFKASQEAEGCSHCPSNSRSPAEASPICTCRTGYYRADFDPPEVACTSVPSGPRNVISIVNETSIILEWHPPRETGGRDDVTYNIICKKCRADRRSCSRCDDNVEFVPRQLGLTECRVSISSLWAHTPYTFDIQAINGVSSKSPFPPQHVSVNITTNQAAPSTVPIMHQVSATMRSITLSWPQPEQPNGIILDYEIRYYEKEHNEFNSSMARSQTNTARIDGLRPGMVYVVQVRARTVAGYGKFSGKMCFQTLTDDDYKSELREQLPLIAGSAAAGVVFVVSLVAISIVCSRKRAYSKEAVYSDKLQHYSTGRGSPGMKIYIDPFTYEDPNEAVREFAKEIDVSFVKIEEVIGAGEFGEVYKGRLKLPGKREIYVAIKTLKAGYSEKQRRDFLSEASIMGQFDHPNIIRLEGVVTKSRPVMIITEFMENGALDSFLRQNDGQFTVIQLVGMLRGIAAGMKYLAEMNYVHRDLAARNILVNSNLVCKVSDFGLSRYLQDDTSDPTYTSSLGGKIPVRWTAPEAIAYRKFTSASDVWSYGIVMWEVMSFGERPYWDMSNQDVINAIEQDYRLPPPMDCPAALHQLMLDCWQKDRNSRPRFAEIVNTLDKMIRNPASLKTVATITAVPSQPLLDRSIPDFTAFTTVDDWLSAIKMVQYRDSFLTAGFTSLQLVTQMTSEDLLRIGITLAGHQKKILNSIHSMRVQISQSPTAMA

Fer (mouse) = experiment: as above
Jak2 = Jak2 (UniProt O60674); experiment: as above
Jak2, sequence (O60674 whole entry, looked up): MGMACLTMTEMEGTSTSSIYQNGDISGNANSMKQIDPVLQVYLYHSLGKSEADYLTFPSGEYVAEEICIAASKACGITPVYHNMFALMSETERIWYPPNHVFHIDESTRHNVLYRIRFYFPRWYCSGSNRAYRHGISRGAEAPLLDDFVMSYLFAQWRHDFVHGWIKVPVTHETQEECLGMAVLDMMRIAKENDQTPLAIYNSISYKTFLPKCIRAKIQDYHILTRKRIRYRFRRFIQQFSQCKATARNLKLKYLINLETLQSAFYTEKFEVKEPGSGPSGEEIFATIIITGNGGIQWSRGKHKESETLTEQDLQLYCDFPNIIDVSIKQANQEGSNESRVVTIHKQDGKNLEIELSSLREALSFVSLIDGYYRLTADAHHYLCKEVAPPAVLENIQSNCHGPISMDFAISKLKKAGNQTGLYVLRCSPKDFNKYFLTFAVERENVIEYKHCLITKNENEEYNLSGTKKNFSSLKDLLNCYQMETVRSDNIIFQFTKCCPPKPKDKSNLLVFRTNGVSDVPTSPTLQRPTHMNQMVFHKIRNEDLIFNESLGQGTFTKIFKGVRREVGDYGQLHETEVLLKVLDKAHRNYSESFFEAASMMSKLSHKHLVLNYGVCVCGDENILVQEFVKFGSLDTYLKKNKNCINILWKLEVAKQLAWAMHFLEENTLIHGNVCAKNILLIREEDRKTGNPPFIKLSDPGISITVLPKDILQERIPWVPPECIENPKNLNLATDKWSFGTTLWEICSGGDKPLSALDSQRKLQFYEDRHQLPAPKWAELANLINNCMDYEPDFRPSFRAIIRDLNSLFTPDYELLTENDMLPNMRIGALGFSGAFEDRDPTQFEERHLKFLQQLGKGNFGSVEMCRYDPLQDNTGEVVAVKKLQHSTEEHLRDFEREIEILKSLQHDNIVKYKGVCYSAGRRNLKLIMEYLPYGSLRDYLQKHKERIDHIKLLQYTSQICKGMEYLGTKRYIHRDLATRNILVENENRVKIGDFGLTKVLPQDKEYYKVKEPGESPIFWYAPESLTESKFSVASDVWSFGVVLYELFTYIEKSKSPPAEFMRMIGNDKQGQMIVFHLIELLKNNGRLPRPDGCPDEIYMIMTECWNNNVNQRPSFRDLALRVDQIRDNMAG

FGFR3 = FGFR3 (UniProt P22607); experiment: as above
AncSZ = experiment: as above
FGFR1 = FGFR1 (UniProt P11362); experiment: as above
c-Src SH2 = experiment: SH2 binding enrichment of the phosphorylated peptide, bacterial display (enrichment ratio); higher = better substrate or ligand; peptides without Tyr show the background
Grb2 SH2 = Grb2 SH2 (UniProt P62993); experiment: as above
SHP2-C SH2 = experiment: as above
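For SH2 binding enrichment of the phosphorylated peptide, bacterial display in this document: peptide library displayed on the E. coli surface as eCPX fusions, selected cells deep-sequenced, score is each peptide's frequency after selection divided by its frequency in the input.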
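For phosphorylation enrichment, bacterial display in this document: 11-residue human phosphosite peptides and single-mutation variants displayed on the E. coli surface, counted by deep sequencing, each peptide's frequency after selection divided by its frequency in the unselected input library; frequency after pTyr selection over input frequency; kinase dosed for 20-30% of maximal phosphorylation in three min.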

MERTK, sequence (Q12866 whole entry, looked up): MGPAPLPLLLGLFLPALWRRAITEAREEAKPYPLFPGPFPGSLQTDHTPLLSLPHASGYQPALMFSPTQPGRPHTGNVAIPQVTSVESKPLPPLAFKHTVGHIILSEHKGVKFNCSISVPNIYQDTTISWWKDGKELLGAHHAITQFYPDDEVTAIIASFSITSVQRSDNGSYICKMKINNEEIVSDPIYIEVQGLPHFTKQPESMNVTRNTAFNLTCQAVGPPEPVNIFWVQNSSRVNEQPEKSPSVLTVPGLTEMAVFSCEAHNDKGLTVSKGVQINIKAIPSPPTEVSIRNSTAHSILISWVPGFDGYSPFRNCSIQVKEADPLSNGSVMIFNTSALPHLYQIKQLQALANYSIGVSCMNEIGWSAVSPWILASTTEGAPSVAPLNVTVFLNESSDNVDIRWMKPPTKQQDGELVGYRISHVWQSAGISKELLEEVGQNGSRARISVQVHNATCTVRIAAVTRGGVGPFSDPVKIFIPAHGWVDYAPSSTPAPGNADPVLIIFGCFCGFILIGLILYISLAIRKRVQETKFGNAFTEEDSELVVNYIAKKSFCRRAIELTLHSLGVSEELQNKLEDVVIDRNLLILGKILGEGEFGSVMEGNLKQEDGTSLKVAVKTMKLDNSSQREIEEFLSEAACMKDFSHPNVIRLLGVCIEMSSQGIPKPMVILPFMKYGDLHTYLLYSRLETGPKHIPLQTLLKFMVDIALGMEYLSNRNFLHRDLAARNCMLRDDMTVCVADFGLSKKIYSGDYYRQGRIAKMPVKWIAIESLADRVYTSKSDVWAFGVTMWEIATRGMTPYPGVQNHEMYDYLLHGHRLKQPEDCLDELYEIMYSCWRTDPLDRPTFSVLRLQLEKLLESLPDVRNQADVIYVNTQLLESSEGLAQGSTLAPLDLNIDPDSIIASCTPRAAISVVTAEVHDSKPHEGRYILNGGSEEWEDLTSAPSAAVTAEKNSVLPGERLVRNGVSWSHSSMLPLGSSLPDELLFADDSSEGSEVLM
EPHB2, sequence (P29323 whole entry, looked up): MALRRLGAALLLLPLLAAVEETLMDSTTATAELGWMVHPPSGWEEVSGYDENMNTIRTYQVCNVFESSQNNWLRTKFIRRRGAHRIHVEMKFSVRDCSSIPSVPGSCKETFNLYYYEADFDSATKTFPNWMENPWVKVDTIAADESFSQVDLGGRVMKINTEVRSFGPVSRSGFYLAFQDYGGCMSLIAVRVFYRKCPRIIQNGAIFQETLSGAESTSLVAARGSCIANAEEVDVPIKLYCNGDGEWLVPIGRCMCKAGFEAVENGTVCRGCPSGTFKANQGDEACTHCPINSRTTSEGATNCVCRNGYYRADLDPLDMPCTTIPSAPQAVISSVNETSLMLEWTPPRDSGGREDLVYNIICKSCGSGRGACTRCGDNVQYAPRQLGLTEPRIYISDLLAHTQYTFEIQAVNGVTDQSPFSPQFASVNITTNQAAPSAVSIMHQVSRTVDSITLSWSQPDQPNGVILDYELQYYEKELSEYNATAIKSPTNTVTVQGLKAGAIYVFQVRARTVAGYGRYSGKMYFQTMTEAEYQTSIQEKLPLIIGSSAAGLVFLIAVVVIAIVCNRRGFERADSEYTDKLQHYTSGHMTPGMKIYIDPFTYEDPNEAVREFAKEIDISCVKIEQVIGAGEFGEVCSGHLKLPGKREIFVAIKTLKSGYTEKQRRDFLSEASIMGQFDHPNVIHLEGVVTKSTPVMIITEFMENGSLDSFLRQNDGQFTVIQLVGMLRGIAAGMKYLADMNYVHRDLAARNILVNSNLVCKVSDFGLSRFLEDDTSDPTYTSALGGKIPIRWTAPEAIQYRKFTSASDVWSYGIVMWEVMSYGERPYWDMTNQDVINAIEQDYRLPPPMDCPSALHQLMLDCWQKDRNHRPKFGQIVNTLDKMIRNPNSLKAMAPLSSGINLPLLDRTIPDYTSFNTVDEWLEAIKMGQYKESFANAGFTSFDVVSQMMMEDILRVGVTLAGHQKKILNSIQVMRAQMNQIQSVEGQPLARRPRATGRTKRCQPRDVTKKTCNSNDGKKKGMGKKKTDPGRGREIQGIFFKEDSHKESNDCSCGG
Fyn, sequence (P06241 whole entry, looked up): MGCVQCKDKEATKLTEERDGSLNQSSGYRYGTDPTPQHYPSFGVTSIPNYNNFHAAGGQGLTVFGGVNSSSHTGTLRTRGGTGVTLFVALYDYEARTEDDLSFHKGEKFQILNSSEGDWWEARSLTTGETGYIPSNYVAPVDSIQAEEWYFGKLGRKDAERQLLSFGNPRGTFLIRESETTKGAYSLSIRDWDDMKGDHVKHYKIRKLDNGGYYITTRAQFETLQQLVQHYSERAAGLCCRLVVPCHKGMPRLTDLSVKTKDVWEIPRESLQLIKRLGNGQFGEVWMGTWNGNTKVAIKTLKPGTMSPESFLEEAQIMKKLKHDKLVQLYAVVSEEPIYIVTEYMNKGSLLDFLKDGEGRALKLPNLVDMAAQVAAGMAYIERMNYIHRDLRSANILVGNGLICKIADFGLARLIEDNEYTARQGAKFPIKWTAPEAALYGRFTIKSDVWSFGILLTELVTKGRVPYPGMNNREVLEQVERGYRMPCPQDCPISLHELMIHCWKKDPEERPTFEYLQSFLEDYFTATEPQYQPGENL

Row | SH2 binding enrichment (c-Src SH2) | SH2 binding enrichment (Grb2 SH2) | SH2 binding enrichment (SHP2-C SH2) | Sequence | phosphorylation enrichment (MERTK) | phosphorylation enrichment (Fyn) | phosphorylation enrichment (c-Abl (mouse)) | phosphorylation enrichment (EPHB2) | phosphorylation enrichment (Fes) | phosphorylation enrichment (c-Src) | phosphorylation enrichment (Hck) | phosphorylation enrichment (EPHB1) | phosphorylation enrichment (Fer (mouse)) | phosphorylation enrichment (Jak2) | phosphorylation enrichment (FGFR3) | phosphorylation enrichment (AncSZ) | phosphorylation enrichment (FGFR1)
1 | 0.612 | 1 | 0.954 | FLNSIYKSRDE [ROS1_Y2227] | 0.357 | 0.444 | 0.499 | 0.517 | 0.642 | 0.481 | 0.519 | 0.365 | 0.342 | 0.612 | 0.507 | 0.566 | 0.439
2 | 0.533 | 0.716 | 0.831 | IVLRSYPASGH [NID2_Y449] | 0.493 | 0.481 | 0.511 | 0.451 | 0.817 | 0.415 | 0.415 | 0.532 | 0.479 | 0.682 | 0.596 | 0.726 | 0.392
3 | 0.661 | 0.686 | 0.674 | LDLPGYCLLRE [CCDC116_Y291_P293L] | 0.765 | 0.908 | 1.65 | 1.28 | 2.21 | 0.736 | 0.636 | 1.88 | 1.63 | 2.21 | 1.39 | 1.82 | 1.03
4 | 0.536 | 0.756 | 0.513 | LHQSTYQCYDV [SLC7A14_Y693_R695C] | 1.06 | 3.95 | 1.35 | 2.85 | 1.53 | 5.21 | 2.78 | 2.12 | 2.84 | 1.31 | 1.2 | 1.82 | 1.12
5 | 1.01 | 0.959 | 0.908 | NGRQCYSCKGN [PLAUR_Y217] | 0.379 | 0.324 | 0.416 | 0.336 | 0.456 | 0.346 | 0.336 | 0.266 | 0.377 | 0.574 | 0.341 | 0.481 | 0.381
6 | 0.474 | 0.688 | 0.722 | GMEIVYVYVKK [DNAI2_Y5] | 0.416 | 0.545 | 0.813 | 0.665 | 1.23 | 0.632 | 0.899 | 0.731 | 0.545 | 0.964 | 1.1 | 1.24 | 0.967
7 | 0.704 | 0.962 | 0.802 | EKEQNYDLTEV [ECD_Y448] | 0.593 | 0.544 | 0.737 | 0.675 | 1.31 | 0.466 | 0.666 | 0.569 | 0.694 | 1.06 | 0.73 | 1.31 | 0.655
8 | 0.749 | 0.901 | 0.531 | HNELFYEAAEH [VANGL1_Y345_E347A_YF] | 1.46 | 1.05 | 1.47 | 0.842 | 1.55 | 1.89 | 1.51 | 0.586 | 9.73 | 0.944 | 0.884 | 1.85 | 0.826
9 | 1 | 0.94 | 1.15 | CSSPTYRDCLQ [LARGE2_Y682_R677C] | 0.37 | 0.402 | 0.503 | 0.436 | 0.892 | 0.484 | 0.473 | 0.5 | 0.408 | 0.846 | 0.738 | 0.812 | 0.49
10 | 0.876 | 1.05 | 1.14 | VIGRMYDFHVL [RPF2_Y109_YF] | 3.11 | 0.469 | 0.573 | 0.659 | 0.902 | 0.598 | 0.6 | 0.556 | 8.04 | 0.804 | 0.607 | 0.943 | 0.472
11 | 0.497 | 0.956 | 0.931 | QGCGIYKDYYR [PLA2G2D_Y82_S80G] | 0.773 | 5.71 | 1.18 | 0.904 | 1.59 | 6.8 | 3.57 | 1.04 | 0.67 | 1.21 | 1.19 | 1.69 | 1.1
12 | 0.538 | 0.883 | 0.795 | ICRWVYPLTPE [EIF2B5_Y319_R315C] | 0.505 | 0.528 | 0.739 | 0.542 | 1.36 | 0.578 | 0.585 | 0.5 | 0.405 | 1.14 | 0.733 | 1.29 | 0.516
13 | 1.33 | 1.26 | 1.89 | IALSKYGRVKW [FGF6_Y186_R191W] | 0.365 | 0.306 | 0.748 | 0.329 | 0.985 | 0.437 | 0.438 | 0.316 | 0.413 | 0.56 | 0.357 | 0.603 | 0.387
14 | 0.393 | 0.818 | 0.457 | GEVKAYGAGLL [TH_Y419] | 0.342 | 0.363 | 0.451 | 0.459 | 0.503 | 0.342 | 0.404 | 0.309 | 0.319 | 0.498 | 0.371 | 0.497 | 0.453
15 | 2.15 | 1.03 | 1.67 | QGIYGYHHYMQ [UFSP2_Y287] | 10.4 | 10.6 | 5.12 | 8.11 | 1.31 | 8.3 | 8.27 | 3.8 | 13.8 | 1.36 | 1.52 | 1.6 | 1.32
16 | 0.559 | 0.79 | 0.774 | RRFSSYSQMEN [PKP1_Y120] | 1.06 | 1.48 | 0.808 | 0.89 | 2.57 | 0.614 | 0.896 | 0.984 | 0.833 | 0.657 | 1.18 | 2.29 | 1.34
